# Source: article PMC7038936 (Nucleic Acids Research, 2020)
# Key:
# [1] = biological target: RPA70AB (RPA70 181-422), tandem ssDNA-binding domains A and B of RPA70 (human, UniProt P27694 181-422); assay: SEC-MALS
# [2] = biological target: RPA70AB (UniProt P27694 181-422); assay: NMR
# [3] = biological target: XPA globular core (XPA98-219);RPA70AB (human;human?, UniProt P23025;P27694 98-219;181-422, |); assay: NMR
# [4] = biological target: XPA full length M2 (human, UniProt P23025 1-273, E106K;F112A); assay: EMSA
# Sequence of XPA full length M2 (P23025 whole entry E106K/F112A): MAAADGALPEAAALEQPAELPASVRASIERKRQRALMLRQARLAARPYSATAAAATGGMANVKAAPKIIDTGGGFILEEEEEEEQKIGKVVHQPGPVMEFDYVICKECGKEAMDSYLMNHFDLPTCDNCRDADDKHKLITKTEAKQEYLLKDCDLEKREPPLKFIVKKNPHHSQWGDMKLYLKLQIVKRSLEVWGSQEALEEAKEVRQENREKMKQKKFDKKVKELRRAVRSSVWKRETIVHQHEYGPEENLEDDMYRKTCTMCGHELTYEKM
# Sequence of RPA70AB (RPA70 181-422), tandem ssDNA-binding domains A and B of RPA70 (P27694 181-422): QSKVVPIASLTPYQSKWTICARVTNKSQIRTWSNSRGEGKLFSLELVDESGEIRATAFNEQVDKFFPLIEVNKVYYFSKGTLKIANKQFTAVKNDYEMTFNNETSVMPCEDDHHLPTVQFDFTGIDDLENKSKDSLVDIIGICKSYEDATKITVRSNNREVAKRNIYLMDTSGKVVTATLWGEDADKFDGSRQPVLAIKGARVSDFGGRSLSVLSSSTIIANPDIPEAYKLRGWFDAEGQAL
# Sequence of XPA globular core (XPA98-219);RPA70AB (P27694 181-422, one chain of several): as the sequence (P27694 181-422) above
# Sequence of RPA70AB (P27694 181-422): as above
binder,measurement,setting,value
"XPA DNA-binding domain (XPA 98-239), wild type (domain or fragment, human, UniProt P23025 98-239, looked up) MEFDYVICEECGKEFMDSYLMNHFDLPTCDNCRDADDKHKLITKTEAKQEYLLKDCDLEKREPPLKFIVKKNPHHSQWGDMKLYLKLQIVKRSLEVWGSQEALEEAKEVRQENREKMKQKKFDKKVKELRRAVRSSVWKRET",binding result,[1],binds
CCCCCCCC (ssDNA) [dC8],binding result,[2],binds
same,binding result,[3],binds
FAM three-way junction (EMSA) (structured_DNA) DNA 1: GTTCGTCAGGATTCCAATTCGTGCAGGCAT DNA 2: ATGCCTGCACGAATTAAGCCATTCGTAATCATGGT DNA 3: ACCATGATTACGAATGGCTTGGAATCCTGACGAAC,binding result,[4],binds
